Patent EP4578463A1, “ENDO-180 TARGETED ANTIBODY-DRUG CONJUGATES” (Oncomatryx Biopharma, S.L., priority 2023, dated 2025)

What was measured:
[1] = target: T1, Endo180 on cells (Endo180-expressing HT1080-WT cells; Endo180-transfected HEK293-Endo180 cells) (UniProt Q9UBG0 31-1479); assay: flow cytometry on HT1080-WT cells
T1 construct: whole, on cells; One molecule is used for the endogenous protein on HT1080-WT and the transfected protein on HEK293-Endo180; also called uPARAP
T1 sequence (looked up): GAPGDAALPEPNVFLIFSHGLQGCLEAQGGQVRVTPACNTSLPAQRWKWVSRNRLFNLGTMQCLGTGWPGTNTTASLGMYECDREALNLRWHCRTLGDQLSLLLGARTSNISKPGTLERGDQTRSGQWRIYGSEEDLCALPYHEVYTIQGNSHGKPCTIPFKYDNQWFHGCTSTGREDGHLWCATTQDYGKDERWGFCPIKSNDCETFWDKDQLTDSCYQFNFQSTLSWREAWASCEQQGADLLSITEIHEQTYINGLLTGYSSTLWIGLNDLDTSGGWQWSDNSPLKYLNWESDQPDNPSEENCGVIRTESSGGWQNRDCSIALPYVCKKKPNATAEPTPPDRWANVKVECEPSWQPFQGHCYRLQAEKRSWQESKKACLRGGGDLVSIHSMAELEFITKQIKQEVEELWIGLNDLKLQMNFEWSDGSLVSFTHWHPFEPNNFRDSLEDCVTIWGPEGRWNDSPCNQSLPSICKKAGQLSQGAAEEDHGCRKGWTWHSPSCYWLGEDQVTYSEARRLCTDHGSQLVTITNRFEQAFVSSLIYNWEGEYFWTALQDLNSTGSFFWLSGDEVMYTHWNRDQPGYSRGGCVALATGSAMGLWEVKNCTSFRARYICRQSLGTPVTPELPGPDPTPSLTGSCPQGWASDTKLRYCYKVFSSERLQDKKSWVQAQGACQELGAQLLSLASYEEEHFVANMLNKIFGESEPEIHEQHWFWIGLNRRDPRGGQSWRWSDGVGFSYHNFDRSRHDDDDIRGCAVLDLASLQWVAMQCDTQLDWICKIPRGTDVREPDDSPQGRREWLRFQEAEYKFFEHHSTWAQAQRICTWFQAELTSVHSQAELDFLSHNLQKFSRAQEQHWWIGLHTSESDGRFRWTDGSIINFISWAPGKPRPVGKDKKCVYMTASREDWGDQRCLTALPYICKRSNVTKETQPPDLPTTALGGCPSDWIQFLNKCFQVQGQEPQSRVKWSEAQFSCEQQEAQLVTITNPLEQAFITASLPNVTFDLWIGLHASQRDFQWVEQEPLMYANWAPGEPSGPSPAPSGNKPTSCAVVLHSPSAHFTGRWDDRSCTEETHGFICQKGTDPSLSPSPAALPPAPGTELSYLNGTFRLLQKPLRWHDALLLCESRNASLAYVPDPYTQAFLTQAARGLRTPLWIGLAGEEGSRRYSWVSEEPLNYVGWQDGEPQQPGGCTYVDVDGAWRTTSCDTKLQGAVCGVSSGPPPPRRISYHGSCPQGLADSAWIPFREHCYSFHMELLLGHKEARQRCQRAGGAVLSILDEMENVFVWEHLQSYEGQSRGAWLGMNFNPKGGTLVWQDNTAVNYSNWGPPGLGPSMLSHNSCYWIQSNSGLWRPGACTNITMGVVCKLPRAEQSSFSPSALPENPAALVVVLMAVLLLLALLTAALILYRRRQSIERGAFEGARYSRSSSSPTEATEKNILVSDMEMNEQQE

[2] = target: T2, human Endo180-moFc domains I-IV (aa 31-513) (human, UniProt Q9UBG0 31-513); assay: ELISA, immobilized huEndo180-moFc
T2 construct: also called huEndo180 (DI-IV); huEndo180-moFc DI-IV; not shown: murine Fc domain
T2 sequence: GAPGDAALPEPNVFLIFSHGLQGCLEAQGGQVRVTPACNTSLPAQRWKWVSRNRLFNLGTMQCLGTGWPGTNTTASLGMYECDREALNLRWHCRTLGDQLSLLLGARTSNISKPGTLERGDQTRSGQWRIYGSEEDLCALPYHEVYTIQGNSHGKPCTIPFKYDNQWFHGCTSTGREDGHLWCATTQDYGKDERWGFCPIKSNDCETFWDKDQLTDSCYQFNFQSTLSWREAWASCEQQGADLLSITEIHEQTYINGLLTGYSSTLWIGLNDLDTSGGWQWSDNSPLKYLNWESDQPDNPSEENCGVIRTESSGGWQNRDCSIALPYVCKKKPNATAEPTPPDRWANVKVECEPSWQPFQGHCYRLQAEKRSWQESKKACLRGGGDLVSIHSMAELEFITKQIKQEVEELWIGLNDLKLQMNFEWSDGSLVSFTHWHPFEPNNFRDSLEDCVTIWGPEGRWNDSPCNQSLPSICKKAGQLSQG

[3] = target: T3, human Endo180-His (aa: 31-513; comprising the first four N-terminal domains) (human, UniProt Q9UBG0 31-513); assay: ELISA, immobilized human Endo180-His
T3 construct: In-house produced; also called huEndo; human Endo180-His molecule; not shown: His tag
T3 sequence: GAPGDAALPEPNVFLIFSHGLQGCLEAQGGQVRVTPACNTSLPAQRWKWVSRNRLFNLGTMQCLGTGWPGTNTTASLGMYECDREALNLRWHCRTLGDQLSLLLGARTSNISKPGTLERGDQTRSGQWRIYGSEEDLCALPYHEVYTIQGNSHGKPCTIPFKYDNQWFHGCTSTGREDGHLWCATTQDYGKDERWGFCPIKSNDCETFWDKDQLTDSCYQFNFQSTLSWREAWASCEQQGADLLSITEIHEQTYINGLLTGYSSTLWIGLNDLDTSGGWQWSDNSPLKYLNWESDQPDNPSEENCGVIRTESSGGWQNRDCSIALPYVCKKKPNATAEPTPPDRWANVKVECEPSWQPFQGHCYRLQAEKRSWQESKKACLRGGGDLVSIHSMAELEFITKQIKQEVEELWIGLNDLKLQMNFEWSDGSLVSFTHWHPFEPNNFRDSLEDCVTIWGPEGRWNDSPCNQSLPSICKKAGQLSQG

[4] = target: T1, Endo180 on cells (Endo180-expressing …); assay: flow cytometry on HEK293-Endo180 cells
[5] = target: T4, human Endo180-moFc domains I-II (aa 31-232) (human, UniProt Q9UBG0 31-232); assay: ELISA, immobilized human Endo180-moFc domains
T4 construct: also called huEndo180-moFc DI-II; not shown: murine Fc domain
T4 sequence: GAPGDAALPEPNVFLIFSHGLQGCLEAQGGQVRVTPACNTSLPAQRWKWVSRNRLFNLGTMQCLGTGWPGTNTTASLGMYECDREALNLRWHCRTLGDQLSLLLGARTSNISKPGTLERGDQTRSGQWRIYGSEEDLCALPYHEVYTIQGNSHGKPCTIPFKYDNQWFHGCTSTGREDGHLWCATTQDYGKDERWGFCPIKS

[6] = target: T5, human Endo180-moFc domain I (aa 31-173) (human, UniProt Q9UBG0 31-173); assay: ELISA, immobilized human Endo180-moFc domains
T5 construct: also called huEndo180-moFc DI; not shown: murine Fc domain
T5 sequence: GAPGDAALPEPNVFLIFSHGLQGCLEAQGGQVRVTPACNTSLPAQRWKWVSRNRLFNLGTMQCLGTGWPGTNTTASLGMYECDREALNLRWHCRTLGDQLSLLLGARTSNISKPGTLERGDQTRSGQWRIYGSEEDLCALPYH

B1: Human IgG1 G7V with a wildtype γ1 heavy chain (antibody, V domains shown)
VH: EVQLVESGGGLVKPGGSLRLSCAASGFTFSSYSMNWVRQAPGKGLEWVANIKPDGSERHSVDSVKGRFTISRDNSKNSLYLQMNSLRAEDTAVYYCARPGAGRLDYWGQGTLVTVSS
VL: SSELTQDPAVSVALGQTVRITCQGDSLRSYYASWYQQKPGQAPVLVVYGKNNRPSGIPDRFSGSSSGNTASLTITGAQAEDEADYYCNSRDSSGNPWAFGGGTKVTVLG
notes: Naked antibody, made in HEK293-6E (lab scale) or CHO (1 L scale); also called IgG G7V; OMTX007-G7V
EC50 [1]: 0.4 nM
EC50 [2]: 0.4 nM
EC50 [3]: 4.7 nM
EC50 [4]: 1.5 nM
binding result [5]: no binding (tested: titrated from 0.1 pM to 100 nM)
binding result [6]: no binding (tested: titrated from 0.1 pM to 100 nM)
